Results on one substance are retold here after publication PMC2786213.

Series [1] has as its target discoidin domain receptor 1 (DDR1), mouse DDR1a, tagged with cyan or yellow fluorescent protein (mouse). As to the kind of experiment: FRET or BRET. Background: In BRET a luciferase serves as donor, and the signal depends on an acceptor being close.

Sequence of discoidin domain receptor 1 (DDR1), mouse DDR1a, tagged with cyan or yellow fluorescent protein (Q03146 20-911): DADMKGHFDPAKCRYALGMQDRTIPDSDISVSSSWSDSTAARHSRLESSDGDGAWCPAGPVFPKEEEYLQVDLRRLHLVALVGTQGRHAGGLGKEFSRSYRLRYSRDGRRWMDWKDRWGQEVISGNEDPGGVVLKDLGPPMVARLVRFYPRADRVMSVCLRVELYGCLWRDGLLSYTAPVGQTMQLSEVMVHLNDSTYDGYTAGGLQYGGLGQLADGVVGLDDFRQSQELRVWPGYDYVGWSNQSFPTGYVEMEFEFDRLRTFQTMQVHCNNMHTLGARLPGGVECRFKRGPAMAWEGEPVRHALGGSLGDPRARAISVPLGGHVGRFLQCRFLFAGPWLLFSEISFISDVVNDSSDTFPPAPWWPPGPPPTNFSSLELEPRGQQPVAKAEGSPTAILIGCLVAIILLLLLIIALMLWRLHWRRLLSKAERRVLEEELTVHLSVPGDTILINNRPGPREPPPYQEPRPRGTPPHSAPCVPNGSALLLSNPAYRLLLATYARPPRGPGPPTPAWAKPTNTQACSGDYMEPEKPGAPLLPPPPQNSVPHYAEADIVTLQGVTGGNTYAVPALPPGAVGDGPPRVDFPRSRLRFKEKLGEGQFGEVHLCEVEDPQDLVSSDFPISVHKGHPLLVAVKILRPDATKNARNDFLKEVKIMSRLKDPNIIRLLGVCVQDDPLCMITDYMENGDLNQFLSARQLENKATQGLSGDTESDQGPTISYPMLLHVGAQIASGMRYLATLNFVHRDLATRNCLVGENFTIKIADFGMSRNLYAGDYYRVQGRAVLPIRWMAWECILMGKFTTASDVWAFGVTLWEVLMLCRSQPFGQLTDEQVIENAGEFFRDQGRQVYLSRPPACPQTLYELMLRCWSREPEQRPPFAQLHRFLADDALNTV

With “discoidin domain receptor 1 (DDR1), mouse DDR1a, tagged with cyan or yellow fluorescent protein”, in the series “FRET or BRET”, the FRET index FC/A (collagen 5 min, aggregated ROI) was 14.6; the FRET index FC/A (collagen 30 min, aggregated ROI) is 15.2; the FRET index FC/A (collagen 60 min, aggregated ROI) is 13.8; the FRET index FC/A (collagen 60 min, nonaggregated ROI) stood at 5.2. In addition, in series [1], the FRET index FC/A (0 min, no collagen) stood at 5.1.
